The target in assay [1] is T1, human IgG1 Fc-tagged mouse PVRIG (m-PVRIG-hIgG1 Fc) (mouse, UniProt A0A1B0GS01 35-165).
T1 construct: bought from Acrobiosystems; also called Mouse PVRIG-Fc; mouse PVRIG recombinant protein; not shown: human IgG1 Fc tag of the Acrobiosystems product, and any linker to it
T1 sequence: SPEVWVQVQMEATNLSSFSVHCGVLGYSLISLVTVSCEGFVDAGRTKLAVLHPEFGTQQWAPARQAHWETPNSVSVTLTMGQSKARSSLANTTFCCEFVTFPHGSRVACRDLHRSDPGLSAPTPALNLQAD
As to the kind of experiment: ELISA, coated antigen. How it is done:
(§1) ELISA assay was used to detect binding properties of anti-PVRIG antibodies. […] After the antibody was added, the activity of the binding of the antibody to the antigen was detected by adding a secondary antibody (HRP-conjugated anti-primary antibody Fc antibody) and HRP substrate TMIB.
(§2) A human, cynomolgus monkey, or mouse PVRIG protein (at a concentration of 1 μg/mL) was coated on a 96-well microplate at 100 μL per well, and incubated overnight at 4° C. The plate was washed three times with wash buffer at 250 μL per well. For each wash, the plate was shaken for 10 s to ensure adequate cleaning. A blocking solution (PBS+0.05% Tween20+1% BSA) was added at 300 μL/well, and the plate was incubated at room temperature for 1 h. The plate was washed three times with wash buffer at 250 μL per well. For each wash, the plate was shaken for 10 s to ensure adequate cleaning. Dilutions of the test anti-PVRIG antibodies were added at 100 μL/well. The plate was incubated at 37° C. for 1 h. The plate was washed three times with wash buffer at 250 μL per well. The […] anti-human IgG secondary antibody (Sigma, A8667) was added at 100 μL per well. The plate was incubated at 37° C. for 1 h. The plate was washed three times with wash buffer at 250 μL per well. TMB was added at 100 μL/well, and the plate was incubated in the dark for 15 min. 0.16 M sulfuric acid was added at 50 μL/well. The OD values at 450 nm were read by using a Thermo MultiSkanFc microplate reader, and the EC₅₀ values of the binding of the anti-PVRIG antibodies to PVRIG were calculated.
In general terms: ELISA stands for enzyme-linked immunosorbent assay.

Assay [2] has as its target T2, mouse IgG2a Fc-tagged human PVRIG (h-PVRIG-mIgG2a Fc) recombinant protein (human, UniProt Q6DKI7 41-171, limits assumed).
T2 construct: bought from Acrobiosystems; not shown: mouse IgG2a Fc tag
T2 sequence (looked up): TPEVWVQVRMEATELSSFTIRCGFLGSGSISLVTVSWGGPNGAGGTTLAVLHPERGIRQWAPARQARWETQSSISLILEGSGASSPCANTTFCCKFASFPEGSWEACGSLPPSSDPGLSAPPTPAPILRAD
In words: competition ELISA; human PVRIG coated, competitor human PVRL2. How it is done: (§3) The h-PVRIG-mIgG2a Fc protein (at a concentration of 1 μg/mL) was coated on the 96-well microplate at 100 μL per well, and incubated overnight at 4° C. The plate was washed three times with wash buffer at 250 μL per well. For each wash, the plate was shaken for 10 s to ensure adequate cleaning. A blocking solution was added at 300 μL/well, and the plate was incubated at room temperature for 1 h. The plate was washed three times with wash buffer at 250 μL per well. For each wash, the plate was shaken for 10 s to ensure adequate cleaning. 50 μL of diluted test anti-PVRIG antibody and 50 μL of his-tagged ligand PVRL2 were added to each well, and the plate was incubated at 37° C. for 1 h. The plate was washed three times with wash buffer at 250 μL per well. The HRP-labeled anti-his-tagged secondary antibody (Genscrpit) diluted at 1:2000 was added at 100 μL per well. The plate was incubated at 37° C. for 1 h. The plate was washed three times with wash buffer at 250 μL per well. TMB was added at 100 μL/well, and the plate was incubated in the dark for 15 min. 0.16 M sulfuric acid was added at 50 μL/well. OD values at 450 nm were measured using a Thermo MμtLtiSkanFc microplate reader, and the IC₅₀ values of the anti-PVRIG antibodies blocking the binding of PVRIG to PVRL2 were calculated.
Binding of the humanized anti-PVRIG/TIGIT bispecific antibodies to human and cynomolgus monkey PVRIG and their blocking of the ligand of human PVRIG were detected according to the methods of Examples 4, 5 and 6.

Assay [3] deals with T2, mouse IgG2a Fc-tagged human PVRIG …. In words: competition ELISA; coated h-PVRIG-mIgG2a Fc, competitor his-PVRL2. How it is done: In this experiment, by in vitro blocking experiment, the ability of the selected anti-PVRIG antibodies to block the binding of human PVRIG to its ligand human PVRL2 was detected. Specifically, a mouse IgG2a Fc-tagged human PVRIG recombinant protein (h-PVRIG-mIgG2a Fc) was coated on a 96-well microplate, an anti-PVRIG antibody was added to fully bind to and occupy an epitope, then his-tagged PVRL2 (PV2-H52E2, AcroBiosystem) was added, and the binding amount of PVRIG and PVRL2 was calculated by detecting the his tag. The IC₅₀ value of the anti-PVRIG antibody for blocking the PVRIG active site was calculated.
as §3

For assay [4], the target named is T3, his-tagged cynomolgus monkey PVRIG (cyno-PVRIG-his) recombinant protein (cynomolgus monkey).
T3 construct: expressed in HEK293, purified by Ni-NTA; also called Monkey PVRIG-his; cynomolgus monkey PVRIG recombinant protein
T3 chain: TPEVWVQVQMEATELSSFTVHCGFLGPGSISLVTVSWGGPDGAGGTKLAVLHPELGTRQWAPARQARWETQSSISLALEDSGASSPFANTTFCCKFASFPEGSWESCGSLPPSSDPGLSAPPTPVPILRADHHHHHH
As to the kind of experiment: ELISA, coated antigen. How it is done: as §1, §2

B1: positive antibody Tab5 (antibody, human IgG4 S228P, kappa, F234A L235A, V domains shown)
VH: EVQLVESGGGVVKPGGSLRLSCAASGFTFGTSSMNWVRQAPGKGLEWVAVISFDGTEIHYADSVKGRFTISRDNSKSTVFLQMNSLRPDDTALYYCAKGSGNIYFYSGMDVWGQGTTVTVSS
VL: DIQMTQSPSTLSASVGDRVTITCRAGQSISGWLAWFQQKPGKAPNLLIYETSTLESGVPSRFSGSGSGTEYTLTISSLQPDDFATYYCQQYYSYPLTFGQGTKVEIKR
notes: Variable regions of CPA.7.021 (WO2016134333A1) on human IgG4 (S228P/F234A/L235A/K447A) and human kappa constant regions
Usually IC50 stands for the concentration at which inhibition is half-maximal. Turning to B1, the binding result in assay [1] is recorded as “no binding”. Also, the figures for the IC50 in assay [2] and in assay [3] were 0.964 nM and 1.16 nM, respectively.

B2: anti-PVRIG antibody 30 (antibody, human IgG4 S228P, F234A L235A, V domains shown)
VH: HVQLVESGGGSVQAGGSLRLSCEASGYSYSGDCMGWFRRAPGKERDEGVATIDNAGRIKYADSVKGRFTISHGNGKYILYLQMNSLKPEDTDMYYCAAGWTFGGNCSPADWGQGTQVTVSS
notes: no light chain
As a reminder, the EC50 is the concentration needed to bring the measured effect to its halfway point. As for B2, the binding result in assay [1] was “no binding”. Further, the EC50 in assay [4] came to 0.16 nM. Besides, in assay [3], the IC50 stood at 1.11 nM.

B3: anti-PVRIG antibody 151 (antibody, human IgG4 S228P, F234A L235A, V domains shown)
VH: HVQLVESGGGSVQAGGSLRLSCVASASGFTYRPYCMAWFRQAPGKEREAVAGIDIFGGTTYADSVKGRFTASRDNAGFSLFLQMNDLKPEDTAMYYCAAGDSPDGRCPPLGQGLNYWGQGTQVTVSS
notes: no light chain
Turning to B3, the binding result in assay [1] is recorded as “no binding”. Moreover, the EC50 in assay [4] stood at 2.43 nM. The IC50 in assay [3] is 0.37 nM.

B4: humanized anti-PVRIG/TIGIT bispecific antibody 1708-20H5 (bispecific antibody, human IgG4 S228P, kappa)
heavy: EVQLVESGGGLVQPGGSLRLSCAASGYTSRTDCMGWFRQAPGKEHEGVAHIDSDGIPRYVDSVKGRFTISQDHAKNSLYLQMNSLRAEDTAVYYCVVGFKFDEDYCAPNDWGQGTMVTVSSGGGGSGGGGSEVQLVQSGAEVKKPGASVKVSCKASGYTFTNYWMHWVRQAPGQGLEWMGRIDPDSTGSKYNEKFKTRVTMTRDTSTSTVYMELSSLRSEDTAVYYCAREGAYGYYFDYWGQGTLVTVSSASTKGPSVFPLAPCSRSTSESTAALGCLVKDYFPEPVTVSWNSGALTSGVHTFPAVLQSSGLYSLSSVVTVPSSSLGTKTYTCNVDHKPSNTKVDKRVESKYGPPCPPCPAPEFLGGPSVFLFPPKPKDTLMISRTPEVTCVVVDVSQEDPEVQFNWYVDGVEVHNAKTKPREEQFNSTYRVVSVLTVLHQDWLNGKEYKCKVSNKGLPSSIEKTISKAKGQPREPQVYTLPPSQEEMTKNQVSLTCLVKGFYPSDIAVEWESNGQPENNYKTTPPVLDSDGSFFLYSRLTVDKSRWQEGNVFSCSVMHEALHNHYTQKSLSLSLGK
light: DIQMTQSPSSLSASVGDRVTITCRASENIYSYLAWYQQKPGKSPKLLIYNARTLAEGVPSRFSGSGSGTDFTLTISSLQPEDFATYYCQYHSGSPLPFGGGTKVEIKRTVAAPSVFIFPPSDEQLKSGTASVVCLLNNFYPREAKVQWKVDNALQSGNSQESVTEQDSKDSTYSLSSTLTLSKADYEKHKVYACEVTHQGLSSPVTKSFNRGEC
B4: the IC50 in assay [2] turned out to be 0.628 nM.

B5: humanized anti-PVRIG/TIGIT bispecific antibody 1708-30H2 (bispecific antibody, human IgG4 S228P, kappa)
heavy: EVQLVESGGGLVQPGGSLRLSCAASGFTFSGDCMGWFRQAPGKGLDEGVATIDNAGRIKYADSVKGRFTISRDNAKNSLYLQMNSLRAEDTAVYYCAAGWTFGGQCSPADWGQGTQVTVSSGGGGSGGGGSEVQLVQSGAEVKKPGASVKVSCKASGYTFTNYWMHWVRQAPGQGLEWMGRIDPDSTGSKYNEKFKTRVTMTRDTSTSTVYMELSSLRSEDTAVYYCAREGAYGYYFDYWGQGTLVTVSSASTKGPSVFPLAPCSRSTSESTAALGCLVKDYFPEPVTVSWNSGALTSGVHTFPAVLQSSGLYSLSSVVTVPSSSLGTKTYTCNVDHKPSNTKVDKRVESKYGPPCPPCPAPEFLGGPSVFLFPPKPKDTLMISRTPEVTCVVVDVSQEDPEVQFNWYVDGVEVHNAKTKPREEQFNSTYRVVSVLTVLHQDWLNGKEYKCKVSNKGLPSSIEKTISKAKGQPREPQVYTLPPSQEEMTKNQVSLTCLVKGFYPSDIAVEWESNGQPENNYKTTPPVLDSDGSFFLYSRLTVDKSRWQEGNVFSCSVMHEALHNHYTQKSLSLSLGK
light: B4 light
Consider B5, for which the concentration for half-maximal inhibition (IC50) in assay [2] amounted to 0.552 nM.

B6: anti-PVRIG antibody 39 (antibody, human IgG4 S228P, F234A L235A, V domains shown)
VH: QVQLVESGGGSVQAGGSLRLSCAASRYTSRTDCMGWFRQAPGKEREGVAHIDSDGIPRYVESVKGRFTISQDHAKNTLYLQMNSLKPEDSATYYCVVGFKFGDYCAPNDWGQGTQVTVSS
notes: no light chain
As to B6, the binding result in assay [1] was “no binding”. The EC50 in assay [4] turned out to be 0.16 nM. In addition, in assay [3], the IC50 is 0.76 nM.

B7: anti-PVRIG antibody 38 (antibody, human IgG4 S228P, F234A L235A, V domains shown)
VH: QVQLVESGGGSVQAGGSLRLSCAASPSTYGPSDMAWFRQAPGKQREGVATISAAGRLTYYTDSVRGRFTISRDNAKNTMYLQMNSLKPEDTAMYYCAADFAGGSSLFADYKYWGQGTQVTVSS
notes: no light chain
For B7, the binding result in assay [1] was “no binding”. In assay [4], the EC50 is 0.4 nM. For the same molecule, the IC50 in assay [3] was determined as 0.93 nM.
